# B1: Aβ13-22 or APP 770 (H684-E693) (peptide)
# peptide: HHQKLVFFAE
# B2: Aβ7-16 or APP 770 (D678-K687) (peptide)
# peptide: DSGYEVHHQK
# B3: Aβ15-24 or APP 770 (Q686-V695) (peptide)
# peptide: QKLVFFAEDV
# B4: Aβ9-18 or APP 770 (G680-V689) (peptide)
# peptide: GYEVHHQKLV
# B5: Aβ12-21 or APP 770 (V683-A692) (peptide)
# peptide: VHHQKLVFFA
# B6: Aβ10-19 or APP 770 (Y681-F690) (peptide)
# peptide: YEVHHQKLVF
# Target: Serum samples collected at week 16 from patients immunized with UBI AD vaccine (UB-311)
# Experiment: comp. ELISA, serum P107
row,IC50-based peak height,Binder
1,0,B1
2,0,B2
3,0,B3
4,0,B4
5,0,B5
6,0,B6

# Target: Serum samples collected at week 16 from patients immunized with UBI AD vaccine (UB-311)
# Experiment: comp. ELISA, serum P105
row,IC50-based peak height,Binder
1,0,B1
2,0,B2
3,0,B3
4,0,B4
5,0,B5
6,0,B6

# Target: Serum samples collected at week 16 from patients immunized with UBI AD vaccine (UB-311)
# Experiment: comp. ELISA, serum P210
row,IC50-based peak height,Binder
1,0,B1
2,0,B2
3,0,B3
4,0,B4
5,0,B5
6,0,B6

# Target: Serum samples collected at week 16 from patients immunized with UBI AD vaccine (UB-311)
# Experiment: comp. ELISA, serum P208
row,IC50-based peak height,Binder
1,0,B1
2,0,B2
3,0,B3
4,0,B4
5,0,B5
6,0,B6

# Target: Serum samples collected at week 16 from patients immunized with UBI AD vaccine (UB-311)
# Experiment: comp. ELISA, serum P101
row,IC50-based peak height,Binder
1,0,B1
2,214,B2
3,0,B3
4,0,B4
5,0,B5
6,0,B6

# Target: Serum samples collected at week 16 from patients immunized with UBI AD vaccine (UB-311)
# Experiment: comp. ELISA, serum P108
row,IC50-based peak height,Binder
1,0,B1
2,0,B2
3,0,B3
4,0,B4
5,0,B5
6,0,B6

# Target: Serum samples collected at week 16 from patients immunized with UBI AD vaccine (UB-311)
# Experiment: comp. ELISA, serum P205
row,IC50-based peak height,Binder
1,0,B1
2,0,B2
3,0,B3
4,0,B4
5,0,B5
6,0,B6

# Target: Serum samples collected at week 16 from patients immunized with UBI AD vaccine (UB-311)
# Experiment: comp. ELISA, serum P202
row,IC50-based peak height,Binder
1,0,B1
2,0,B2
3,0,B3
4,0,B4
5,0,B5
6,0,B6

# Target: Serum samples collected at week 16 from patients immunized with UBI AD vaccine (UB-311)
# Experiment: comp. ELISA, serum P204
row,IC50-based peak height,Binder
1,0,B1
2,0,B2
3,0,B3
4,0,B4
5,0,B5
6,0,B6

# Target: Serum samples collected at week 16 from patients immunized with UBI AD vaccine (UB-311)
# Experiment: comp. ELISA, serum P104
row,IC50-based peak height,Binder
1,0,B1
2,0,B2
3,0,B3
4,0,B4
5,0,B5
6,0,B6

# Target: Serum samples collected at week 16 from patients immunized with UBI AD vaccine (UB-311)
# Experiment: comp. ELISA, serum P103
row,IC50-based peak height,Binder
1,0,B1
2,0,B2
3,0,B3
4,0,B4
5,0,B5
6,0,B6

# Target: Serum samples collected at week 16 from patients immunized with UBI AD vaccine (UB-311)
# Experiment: comp. ELISA, serum P201
row,IC50-based peak height,Binder
1,0,B1
2,0,B2
3,0,B3
4,0,B4
5,0,B5
6,0,B6

# Target: Serum samples collected at week 16 from patients immunized with UBI AD vaccine (UB-311)
# Experiment: comp. ELISA, serum P203
row,IC50-based peak height,Binder
1,0,B1
2,0,B2
3,0,B3
4,0,B4
5,0,B5
6,0,B6

# Target: Serum samples collected at week 16 from patients immunized with UBI AD vaccine (UB-311)
# Experiment: comp. ELISA, serum P109
row,IC50-based peak height,Binder
1,0,B1
2,0,B2
3,0,B3
4,0,B4
5,0,B5
6,0,B6

# Target: Serum samples collected at week 16 from patients immunized with UBI AD vaccine (UB-311)
# Experiment: comp. ELISA, serum P102
row,IC50-based peak height,Binder
1,0,B1
2,0,B2
3,0,B3
4,0,B4
5,0,B5
6,0,B6

# Target: Serum samples collected at week 16 from patients immunized with UBI AD vaccine (UB-311)
# Experiment: comp. ELISA, serum P106
row,IC50-based peak height,Binder
1,0,B1
2,0,B2
3,0,B3
4,0,B4
5,0,B5
6,0,B6

# Target: Serum samples collected at week 16 from patients immunized with UBI AD vaccine (UB-311)
# Experiment: comp. ELISA, serum P209
row,IC50-based peak height,Binder
1,0,B1
2,0,B2
3,0,B3
4,0,B4
5,0,B5
6,0,B6

# Target: Serum samples collected at week 16 from patients immunized with UBI AD vaccine (UB-311)
# Experiment: comp. ELISA, serum P206
row,IC50-based peak height,Binder
1,0,B1
2,0,B2
3,0,B3
4,0,B4
5,0,B5
6,0,B6

# Target: Serum samples collected at week 16 from patients immunized with UBI AD vaccine (UB-311)
# Experiment: comp. ELISA, serum P207
row,IC50-based peak height,Binder
1,0,B1
2,0,B2
3,0,B3
4,16,B4
5,27,B5
6,10,B6
